B1: Circadian clock oscillator protein KaiC (Synechococcus elongatus (strain PCC 7942)), Q79PF4 (parent)
chain: MTSAEMTSPNNNSEHQAIAKMRTMIEGFDDISHGGLPIGRSTLVSGTSGTGKTLFSIQFLYNGIIEFDEPGVFVTFEETPQDIIKNARSFGWDLAKLVDEGKLFILDASPDPEGQEVVGGFDLSALIERINYAIQKYRARRVSIDSVTSVFQQYDASSVVRRELFRLVARLKQIGATTVMTTERIEEYGPIARYGVEEFVSDNVVILRNVLEGERRRRTLEILKLRGTSHMKGEYPFTITDHGINIFPLGAMRLTQRSSNVRVSSGVVRLDEMCGGGFFKDSIILATGATGTGKTLLVSRFVENACANKERAILFAYEESRAQLLRNAYSWGMDFEEMERQNLLKIVCAYPESAGLEDHLQIIKSEINDFKPARIAIDSLSALARGVSNNAFRQFVIGVTGYAKQEEITGLFTNTSDQFMGAHSITDSHISTITDTIILLQYVEIRGEMSRAINVFKMRGSWHDKAIREFMISDKGPDIKDSFRNFERIISGSPTRITVDEKSELSRIVRGVQEKGPES
partner: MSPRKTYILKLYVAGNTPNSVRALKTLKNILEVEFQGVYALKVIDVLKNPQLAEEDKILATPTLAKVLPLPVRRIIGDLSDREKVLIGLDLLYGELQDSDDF
B2: Circadian clock oscillator protein KaiC (Synechococcus elongatus (strain PCC 7942)), Q79PF4 (parent)
chain: B1 chain
partner: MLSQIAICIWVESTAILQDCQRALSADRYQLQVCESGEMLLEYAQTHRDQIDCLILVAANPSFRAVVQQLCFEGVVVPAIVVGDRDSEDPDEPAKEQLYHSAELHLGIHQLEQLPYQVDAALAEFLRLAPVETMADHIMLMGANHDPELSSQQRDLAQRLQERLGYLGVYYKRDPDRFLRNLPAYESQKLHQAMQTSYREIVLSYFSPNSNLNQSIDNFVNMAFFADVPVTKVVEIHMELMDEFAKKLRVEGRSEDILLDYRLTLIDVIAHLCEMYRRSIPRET

The variants in one experiment derive from B1. Conditions: with kaib_syne7 kaiB.
In the case of S431A;T432A, the “effect of a mutation on the interaction” value was “disrupting interaction strength”.
Same read-out and setting: next, S431A;T432E: “disrupting interaction strength”.
Still for that read-out and setting: next, MTSAEMTSPNNNSEHQAIAKMRTMIEGFDDISHGGLPIGRSTLVSGTSGTGKTLFSIQFLYNGIIEFDEPGVFVTFEETPQDIIKNARSFGWDLAKLVDEGKLFILDASPDPEGQEVVGGFDLSALIERINYAIQKYRARRVSIDSVTSVFQQYDASSVVRRELFRLVARLKQIGATTVMTTERIEEYGPIARYGVEEFVSDNVVILRNVLEGERRRRTLEILKLRGTSHMKGEYPFTITDHGINIFPLGAMRLTQRSSNVRVSSGVVRLDEMCGGGFFKDSIILATGATGTGKTLLVSRFVENACANKERAILFAYEESRAQLLRNAYSWGMDFEEMERQNLLKIVCAYPESAGLEDHLQIIKSEINDFKPARIAIDSLSALARGVSNNAFRQFVIGVTGYAKQEEITGLFTNTSDQFMGAHSITDSHIATITDTIILLQYVEIRGEMSRAINVFKMRGSWHDKAIREFMISDKGPDIKDSFRNFERIISGSPTRITVDEKSELSRIVRGVQEKGPES [S431A]: “disrupting interaction strength”.
Still for that read-out and setting: for S431D;T432A the value was “disrupting interaction strength”.

The variants in the next experiment derive from B2. Particulars: with kaia_syne7 kaiA.
Turning to S431A;T432A, the “effect of a mutation on the interaction” value is “decreasing interaction strength”.
On the same count and under the same terms, next, MTSAEMTSPNNNSEHQAIAKMRTMIEGFDDISHGGLPIGRSTLVSGTSGTGKTLFSIQFLYNGIIEFDEPGVFVTFEETPQDIIKNARSFGWDLAKLVDEGKLFILDASPDPEGQEVVGGFDLSALIERINYAIQKYRARRVSIDSVTSVFQQYDASSVVRRELFRLVARLKQIGATTVMTTERIEEYGPIARYGVEEFVSDNVVILRNVLEGERRRRTLEILKLRGTSHMKGEYPFTITDHGINIFPLGAMRLTQRSSNVRVSSGVVRLDEMCGGGFFKDSIILATGATGTGKTLLVSRFVENACANKERAILFAYEESRAQLLRNAYSWGMDFEEMERQNLLKIVCAYPESAGLEDHLQIIKSEINDFKPARIAIDSLSALARGVSNNAFRQFVIGVTGYAKQEEITGLFTNTSDQFMGAHSITDSHIEEITDTIILLQYVEIRGEMSRAINVFKMRGSWHDKAIREFMISDKGPDIKDSFRNFERIISGSPTRITVDEKSELSRIVRGVQEKGPES [S431E;T432E]: “increasing interaction strength”.
